B1: HER-2 X EGFR X cMet TsAb_C_HL (other)
heavy 1: EVQLVESGGGLVQPGGSLRLSCAASGFTFTDYTMDWVRKAPGKGLEWVADVNPNSGGSIYNQEFKGRFTLSVDRSKNTLYLQMNSLRAEDTAVYYCARNLGPSFYFDYWGQGTLVTVSSASTKGPSVFPLAPSSKSTSGGTAALGCLVKDYFPEPVTVSWNSGALTSGVATGPAVLQSSGLYSLSSVVTVPSSSLGTQTYICNVNHKPSNTKVDKKVEPKSCDKTHTCPPCPAPEAAGGPSVFLFPPKPKDTLMISRTPEVTCVVVDVSHEDPEVKFNWYVDGVEVHNAKTKPREQYQSTYRVVSVLTVLHQDWLNGKEYKCKVSNKALPAPIEKTISKAKGQPREPQVSTLPPSREEMTKNQVSLMCLVYGFYPSDIAVEWESNGQPENNYKTTPPVLDSDGSFFLYSVLTVDKSRWQQGNVFSCSVMHEALHNHYTQKSLSLSPGKGGGGSGGGGSGGGGSGGGGSEVQLVESGGGLVQPGGSLRLSCAASGYTFTSYWLHWVRQAPGKGLEWVGMIDPSNSDTRFNPNFKDRFTISADTSKNTAYLQMNSLRAEDTAVYYCATYRSYVTPLDYWGRGTLVTVSSASTKGPSVFPLAPSSKSTSGGTAALGCLVADYFPEPVTVSWNSGALTSGVHTFPAVLQSSGLYSLSSVVTVPSSSLGTQTYICNVNHKPSNTKVDERVEPKSC
light 1: RIQMTQSPSSLSASVGDRVTITCKASQDVSIGVAWYQDKPGKAPKLLIYSASYRYTGVPSRFSGSGSGTDFTLTISSLQPEDFATYYCQQYYIYPYTFGQGTKVEIKGQPKAAPSVTLFPPSSEELQANKATLVCYISDFYPGAVTVAWKADSSPVKAGVETTTPSKQSNNKYAAWSYLSLTPEQWKSHRSYSCQVTHEGSTVEKTVAPTEC
heavy 2: QVQLVQSGAEVKKPGASVKVSCKASGYTFTSHWMHWVRYAPGQGLEWIGEFNPSNGRTNYNEKFKSKATMTVDTSTNTAYMELSSLRSEDTAVYYCASRDYDYDGRYFDYWGQGTLVTVSSASTKGPSVFPLAPCSKSTSGGTAALGCLVKDYFPEPVTVSWNSGALTSGVHTFPAVLQSSGLYSLSSVVTVPSSSLGTQTYICNVNHKPSNTKVDKKVEPDSGDKTHTCPPCPAPEAAGGPSVFLFPPKPKDTLMISRTPEVTCVVVDVSHEDPEVKFNWYVDGVEVHNAKTKPREEQYQSTYRVVSVLTVLHQDWLNGKEYKCKVSNKALPAPIEKTISKAKGQPREPQVYTLPPSRGDMTKNQVQLTCLVKGFYPSDIAVEWESNGQPENNYKTTPPVLDSDGSFFLASKLTVDKSRWQQGNVFSCSVMHEALHNHYTQKSLSLSPGKGGGGSGGGGSGGGGSGGGGSDIQMTQSPSSLSASVGDRVTITCKSSQSLLYTSSQKNYLAWYQQKPGDAPKLLIYWASTRESGVPSRFSGSGSGTDFTLTISSLQPEDFATYYCQQYYAYPWTFGQGTKVEIKRTVAAPSVFIFPPSDKQLKSGTARVVCLLNNFYPREAKVQWKVDNALQSGNSQESVTEQDSKDSTYSLISTLTLSKADYEKHKVYACEVTHQGLSSPVTKSFNRGEC
light 2: DIQMTQSPSSLSASVGDRVTITCSASSSVTYMYWYQRKPGKAPKLLIYDTSNLASGVPSRFSGSGSGTDYTFTISSLQPEDIATYYCQQWSSHIFTFGQGTKVEIKRTVAAPSVFIFPPSKEQLKSGTASVVCLLNNFYPREAKVQWKVDNALQSGNSQESVTEQDSKDSTYSLSSTLTLSKADYEKHKVYACEVTHQGLSSPVTKSFNRGEC
notes: Trispecific IgG-Fab antibody with Fabs from pertuzumab, matuzumab and MetMAb; the anti-cMet Fab is dually tethered at the C-terminus of the heterodimeric Fc
B2: HER-2 X EGFR X cMet TsAb_N_L (other)
heavy 1: DIQMTQSPSSLSASVGDRVTITCKSSQSLLYTSSQKNYLAWYQQKPGDAPKLLIYWASTRESGVPSRFSGSGSGTDFTLTISSLQPEDFATYYCQQYYAYPWTFGQGTKVEIKRTVAAPSVFIFPPSDKQLKSGTARVVCLLNNFYPREAKVQWKVDNALQSGNSQESVTEQDSKDSTYSLISTLTLSKADYEKHKVYACEVTHQGLSSPVTKSFNRGECGGGGSGGGGSGGGGSGGGGSGGGGSQVQLVQSGAEVKKPGASVKVSCKASGYTFTSHWMHWVRYAPGQGLEWIGEFNPSNGRTNYNEKFKSKATMTVDTSTNTAYMELSSLRSEDTAVYYCASRDYDYDGRYFDYWGQGTLVTVSSASTKGPSVFPLAPCSKSTSGGTAALGCLVKDYFPEPVTVSWNSGALTSGVHTFPAVLQSSGLYSLSSVVTVPSSSLGTQTYICNVNHKPSNTKVDKKVEPDSGDKTHTCPPCPAPEAAGGPSVFLFPPKPKDTLMISRTPEVTCVVVDVSHEDPEVKFNWYVDGVEVHNAKTKPREEQYQSTYRVVSVLTVLHQDWLNGKEYKCKVSNKALPAPIEKTISKAKGQPREPQVYTLPPSRGDMTKNQVQLTCLVKGFYPSDIAVEWESNGQPENNYKTTPPVLDSDGSFFLASKLTVDKSRWQQGNVFSCSVMHEALHNHYTQKSLSLSPG
light 1: B1 light 2
heavy 2: EVQLVESGGGLVQPGGSLRLSCAASGFTFTDYTMDWVRKAPGKGLEWVADVNPNSGGSIYNQEFKGRFTLSVDRSKNTLYLQMNSLRAEDTAVYYCARNLGPSFYFDYWGQGTLVTVSSASTKGPSVFPLAPSSKSTSGGTAALGCLVKDYFPEPVTVSWNSGALTSGVATGPAVLQSSGLYSLSSVVTVPSSSLGTQTYICNVNHKPSNTKVDKKVEPKSCDKTHTCPPCPAPEAAGGPSVFLFPPKPKDTLMISRTPEVTCVVVDVSHEDPEVKFNWYVDGVEVHNAKTKPREEQYQSTYRVVSVLTVLHQDWLNGKEYKCKVSNKALPAPIEKTISKAKGQPREPQVSTLPPSREEMTKNQVSLMCLVYGFYPSDIAVEWESNGQPENNYKTTPPVLDSDGSFFLYSVLTVDKSRWQQGNVFSCSVMHEALHNHYTQKSLSLSPG
light 2: B1 light 1
chain: EVQLVESGGGLVQPGGSLRLSCAASGYTFTSYWLHWVRQAPGKGLEWVGMIDPSNSDTRFNPNFKDRFTISADTSKNTAYLQMNSLRAEDTAVYYCATYRSYVTPLDYWGRGTLVTVSSASTKGPSVFPLAPSSKSTSGGTAALGCLVADYFPEPVTVSWNSGALTSGVHTFPAVLQSSGLYSLSSVVTVPSSSLGTQTYICNVNHKPSNTKVDERVEPKSC
notes: Trispecific IgG-Fab antibody; the anti-cMet Fab is fused N-terminally through its light chain
B3: HER-2 X EGFR X cMet TsAb_C_L (other)
heavy 1: B2 heavy 2
light 1: B1 light 1
chain: B2 chain
heavy 2: B1 heavy 2
light 2: B1 light 2
notes: Trispecific IgG-Fab antibody; the anti-cMet Fab is tethered through its light chain only at the C-terminus of HC2
B4: HER-2 X EGFR X cMet TsAb_N_H (other)
heavy 1: EVQLVESGGGLVQPGGSLRLSCAASGYTFTSYWLHWVRQAPGKGLEWVGMIDPSNSDTRFNPNFKDRFTISADTSKNTAYLQMNSLRAEDTAVYYCATYRSYVTPLDYWGRGTLVTVSSASTKGPSVFPLAPSSKSTSGGTAALGCLVADYFPEPVTVSWNSGALTSGVHTFPAVLQSSGLYSLSSVVTVPSSSLGTQTYICNVNHKPSNTKVDERVEPKSCGGGGSGGGGSGGGGSGGGGSGGGGSQVQLVQSGAEVKKPGASVKVSCKASGYTFTSHWMHWVRYAPGQGLEWIGEFNPSNGRTNYNEKFKSKATMTVDTSTNTAYMELSSLRSEDTAVYYCASRDYDYDGRYFDYWGQGTLVTVSSASTKGPSVFPLAPCSKSTSGGTAALGCLVKDYFPEPVTVSWNSGALTSGVHTFPAVLQSSGLYSLSSVVTVPSSSLGTQTYICNVNHKPSNTKVDKKVEPDSGDKTHTCPPCPAPEAAGGPSVFLFPPKPKDTLMISRTPEVTCVVVDVSHEDPEVKFNWYVDGVEVHNAKTKPREEQYQSTYRVVSVLTVLHQDWLNGKEYKCKVSNKALPAPIEKTISKAKGQPREPQVYTLPPSRGDMTKNQVQLTCLVKGFYPSDIAVEWESNGQPENNYKTTPPVLDSDGSFFLASKLTVDKSRWQQGNVFSCSVMHEALHNHYTQKSLSLSPG
light 1: B1 light 2
heavy 2: B2 heavy 2
light 2: B1 light 1
light 3: DIQMTQSPSSLSASVGDRVTITCKSSQSLLYTSSQKNYLAWYQQKPGDAPKLLIYWASTRESGVPSRFSGSGSGTDFTLTISSLQPEDFATYYCQQYYAYPWTFGQGTKVEIKRTVAAPSVFIFPPSDKQLKSGTARVVCLLNNFYPREAKVQWKVDNALQSGNSQESVTEQDSKDSTYSLISTLTLSKADYEKHKVYACEVTHQGLSSPVTKSFNRGEC
notes: Trispecific IgG-Fab antibody; the anti-cMet Fab is fused N-terminally through its heavy chain fragment
B5: Matuzumab (antibody, V domains shown)
VH: QVQLVQSGAEVKKPGASVKVSCKASGYTFTSHWMHWVRQAPGQGLEWIGEFNPSNGRTNYNEKFKSKATMTVDTSTNTAYMELSSLRSEDTAVYYCASRDYDYDGRYFDYWGQGTLVTVSS
VL: DIQMTQSPSSLSASVGDRVTITCSASSSVTYMYWYQQKPGKAPKLLIYDTSNLASGVPSRFSGSGSGTDYTFTISSLQPEDIATYYCQQWSSHIFTFGQGTKVEIKG

What follows are binders tested against T1, Soluble human cMet extracellular domain (ECD) protein (human, UniProt P08581 25-932) (assay: SPR, captured via anti-human kappa, soluble ECD injected).
T1 construct: extracellular domain; His-tagged
T1 sequence (P08581 25-932): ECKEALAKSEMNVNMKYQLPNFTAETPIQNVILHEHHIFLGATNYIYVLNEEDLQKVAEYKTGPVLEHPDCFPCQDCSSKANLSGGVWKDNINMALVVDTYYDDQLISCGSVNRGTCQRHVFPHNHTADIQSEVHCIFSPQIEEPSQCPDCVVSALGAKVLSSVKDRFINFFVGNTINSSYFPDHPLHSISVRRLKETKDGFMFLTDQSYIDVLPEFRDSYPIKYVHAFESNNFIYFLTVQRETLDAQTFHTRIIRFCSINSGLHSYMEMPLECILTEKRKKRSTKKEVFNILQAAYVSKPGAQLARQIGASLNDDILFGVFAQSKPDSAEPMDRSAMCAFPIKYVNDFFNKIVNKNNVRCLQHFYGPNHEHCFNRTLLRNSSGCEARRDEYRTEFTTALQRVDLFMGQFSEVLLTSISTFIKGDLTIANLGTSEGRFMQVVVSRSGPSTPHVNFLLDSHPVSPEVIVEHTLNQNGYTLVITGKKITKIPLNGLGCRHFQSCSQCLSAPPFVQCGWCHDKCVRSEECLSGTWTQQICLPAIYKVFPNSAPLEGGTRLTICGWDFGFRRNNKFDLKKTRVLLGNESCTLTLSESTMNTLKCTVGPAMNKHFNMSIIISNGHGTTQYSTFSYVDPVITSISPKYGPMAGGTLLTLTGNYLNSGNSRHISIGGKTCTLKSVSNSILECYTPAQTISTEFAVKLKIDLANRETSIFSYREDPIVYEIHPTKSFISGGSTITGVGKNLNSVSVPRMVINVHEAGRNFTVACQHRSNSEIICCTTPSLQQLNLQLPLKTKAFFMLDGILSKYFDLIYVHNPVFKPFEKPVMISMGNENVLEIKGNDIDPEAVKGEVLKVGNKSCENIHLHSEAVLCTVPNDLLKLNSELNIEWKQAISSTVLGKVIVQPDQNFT

Row | Kd | koff | kon | Binder
1 | 74 nM | 0.00025 s⁻¹ | 3400 M⁻¹ s⁻¹ | B1
2 | 0.36 nM | 0.00016 s⁻¹ | 440000 M⁻¹ s⁻¹ | B2
3 | 0.69 nM | 0.00025 s⁻¹ | 360000 M⁻¹ s⁻¹ | B3
4 | 0.31 nM | 0.00016 s⁻¹ | 520000 M⁻¹ s⁻¹ | B4

These binders were tested against T2, Soluble human HER-2 extracellular domain (ECD) protein (human, UniProt P04626 23-652) in the same assay as above.
T2 construct: extracellular domain; His-tagged

Row | Kd | koff | kon | Binder
5 | 1.2 nM | 0.00027 s⁻¹ | 230000 M⁻¹ s⁻¹ | B1
6 | 0.9 nM | 0.00024 s⁻¹ | 260000 M⁻¹ s⁻¹ | B2
7 | 0.8 nM | 0.00039 s⁻¹ | 520000 M⁻¹ s⁻¹ | B3
8 | 1.1 nM | 0.00026 s⁻¹ | 230000 M⁻¹ s⁻¹ | B4

What follows are binders tested against T3, Soluble human EGFR ECD protein (human, UniProt P00533 25-645) in the same assay as above.
T3 construct: extracellular domain; His-tagged

Row | Kd | koff | kon | Binder
9 | 13 nM | 0.0083 s⁻¹ | 650000 M⁻¹ s⁻¹ | B5
10 | 10 nM | 0.0085 s⁻¹ | 850000 M⁻¹ s⁻¹ | B1
11 | 13 nM | 0.009 s⁻¹ | 720000 M⁻¹ s⁻¹ | B2
12 | 4.5 nM | 0.0086 s⁻¹ | 1.9e+06 M⁻¹ s⁻¹ | B3
13 | 13 nM | 0.0085 s⁻¹ | 680000 M⁻¹ s⁻¹ | B4
